Patent US20110113509, “RATIONALLY-DESIGNED MEGANUCLEASES FOR MAIZE GENOME ENGINEERING” (PRECISION BIOSCIENCES, INC., published 2011)
Residue numbers refer to the chain shown, from its start.

What was measured:
LIG-34+ meganuclease = target: T1, LIG-34+ meganuclease (Artificial Sequence (derived from …)); experiment: cleavage_in_vitro; C50, enzyme to cut 50% of 10 nM linearized pUC19 substrate in 1 h; 37 C, SA buffer pH 8.0, 100 mM NaCl, 5 mM MgCl2, 5 mM EDTA; conditions: tags: C-terminal 6xHis; N-terminal SV40 NLS; inferred)
T1 chain: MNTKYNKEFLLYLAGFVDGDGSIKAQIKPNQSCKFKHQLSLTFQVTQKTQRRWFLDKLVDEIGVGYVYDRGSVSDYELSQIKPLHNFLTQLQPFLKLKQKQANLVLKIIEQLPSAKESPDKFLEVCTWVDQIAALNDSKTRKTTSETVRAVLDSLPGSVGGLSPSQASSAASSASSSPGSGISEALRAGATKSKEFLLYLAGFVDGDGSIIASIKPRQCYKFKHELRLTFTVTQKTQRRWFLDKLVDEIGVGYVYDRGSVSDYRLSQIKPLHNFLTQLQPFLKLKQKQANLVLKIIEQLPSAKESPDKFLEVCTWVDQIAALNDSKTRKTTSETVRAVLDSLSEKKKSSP
Protocol: (§1) The LIG-34 meganucleases were assayed for in vitro activity by incubation with linear, double-stranded DNA substrates containing the meganuclease recognition sequence. Synthetic oligonucleotides corresponding to both sense and antisense strands of the LIG-34 recognition site (SEQ ID NO: 2, SEQ ID NO: 3) were annealed and cloned into the SmaI site of the pUC19 plasmid by blunt-end ligation. The plasmid substrate was linearized with XmnI concurrently with the meganuclease digest. The enzyme digests contained 5 μl of 0.05 μM DNA substrate, 5 μl of meganuclease at varying concentrations (diluted in SA buffer, see below), 14.5 μl SA buffer, and 0.5 μl XmnI. LIG-34 enzyme concentration was varied from 5-400 nM (final concentration). Digests were incubated at 37° C. for 1 hour. Digests were stopped by adding 0.3 mg/ml Proteinase K and 0.5% SDS, and incubated for one hour at 37° C. Digests were analyzed on 1.5% agarose and visualized by ethidium bromide staining.
(§2) Digestion of the linearized plasmid with LIG34, LIG34+ or LIG34++ meganuclease produced two bands on the gel of the sizes corresponding to a simple cut at the LIG-34 site. All of the LIG-34 meganucleases efficiently cut the plasmid substrate harboring the LIG-34 recognition site. […] Thus, while all three enzymes efficiently cleave the LIG-34 site sequence, they do so with varying activity levels (LIG-34<LIG-34+<LIG-34++).

LIG-34 meganuclease = target: T2, LIG-34 meganuclease (Artificial Sequence (derived from …)); experiment: as above; conditions: tags: C-terminal 6xHis; N-terminal SV40 NLS; inferred)
T2 chain: T1 chain with T229E
Protocol: as §1, §2

B1: LIG-34 recognition site (dsDNA)
DNA 1: TACGCGTACGTGTGAGGTATAT
DNA 2: ATATACCTCACACGTACGCGTA
Question: With B1 as the binder, how does the EC50 (LIG-34+ meganuclease) read?
Answer: ~0.013 µM

Question: And the EC50 (LIG-34 meganuclease)?
Answer: ~0.016 µM
